Test system: P49302
Assay: […] (DSC); […] (40 mM tris, pH 8.0, 0.5 M ([…]; 1 mg/mL; […]) dissociation
Details: other: differential scanning calorimetry (DSC)

Substance: unmodified murine polyomavirus VP1 capsomere, as used for DSC
- dHm of capsomere dissociation (first DSC endotherm): 366 kJ/mol
